{"source": "patent US20190331690A1", "about": "“BIOTHIOL DETECTION COMPOSITION COMPRISING REDOX REGULATION PROTENIN” (INDUSTRY-UNIVERSITY COOPERATION FOUNDATION HANYANG …, priority 2016, published 2019)", "key": {"DNA": {"target": "DNA", "assay": "DNA binding strength of OhrR"}, "[1]": {"assay": "Second order reaction rate between a biothiol and the redox-regulating protein", "type": "biochemical"}, "[2]": {"system": "FAM-bound double strand (ds) DNA [SEQ ID NOs: 1 and 2]", "assay": "OhrR and target DNA binding by polyacrylamide gel electrophoresis", "settings": "dsDNA 200 nM, room temperature 30 minutes, 7% polyacrylamide gel", "method": "Fluorescent probe (FAM)-bound double strand (ds) DNA (200 nM) [SEQ ID NOs: 1 and 2] and OhrR at concentrations shown in FIG. 3 were mixed and reacted at room temperature for 30 minutes, and then a dsDNA band was detected using a fluorescence spectrometer (KIF-300, Korea Lab Tech, Korea) through electrophoresis (25 mA, 30 min) using a polyacrylamide gel (7%). It can be seen that the fluorescent band of dsDNA shifted upward from an OhrR concentration of about 1.6 μM (concentration about 8 fold higher than DNA concentration)."}, "[3]": {"system": "biotin-binding dsDNA [SEQ ID NOs: 1 and 2]", "assay": "Biolayer interferometry of DNA and OhrR binding on a photosensor", "method": "A binding degree between DNA and a protein on the surface of a photosensor (optical fiber) was measured using an instrument for biolayer interferometry (Blitz, Fortebio, USA).\nBinding buffer, washing buffer: TBS (Tris 20 mM, NaCl 150 mM)\nDNA binding time, OhrR binding time: 2 min\nDNA concentration: 2.5 μM\nOhrR concentration: 50 μM\nCHP concentration: 100 μM\nFirst, biotin-binding dsDNA [SEQ ID NOs: 1 and 2] was dissolved in a TBS buffer at the above-mentioned concentration, bound to a streptavidin-coated photosensor (optical fiber) by flowing the resulting mixture for 120 seconds, and washed with a buffer, and then the OhrR protein was associated with dsDNA binding to the photosensor by additionally flowing the protein dissolved in a TBS buffer at the above-described concentration for 120 seconds (association). After the association was completed, by additionally flowing only a buffer for 120 seconds, the dissociation process of the DNA-OhrR complex was confirmed (dissociation).\nIn biolayer interferometry, when a biomaterial (DNA or OhrR) is bound to the surface of a photosensor, a change in the surface refractive index of the photosensor is necessarily accompanied (the refractive index has a positive correlation with the concentration of a biomaterial), and the principle of converting the change in refractive index to a thickness is applied. […]"}}, "data": [{"molecule": "OhrR: redox-regulating protein, organic hydroperoxide regulator, cloned in B. subtilis strain, SEQ ID NO: 3, homodimer, 17 kD (protein, listed as Bacillus subtilis, homodimer) MENKFDHMKLENQLCFLLYASSREMTKQYKPLLDKLNITYPQYLALLLLWEHETLTVKKMGEQLYLDSGTLTPMLKRMEQQGLITRKRSEEDERSVLISLTEDGALLKEKAVDIPGTILGLSKQSGEDLKQLKSALYTLLETLHQKN", "values": [{"measurement": "Kd", "setting": "DNA", "value": "≤ 1", "unit": "nM"}, {"measurement": "second order reaction rate between a biothiol and the redox-regulating protein", "setting": "[1]", "value": "about 10^3 M^−1s^−1"}, {"measurement": "OhrR concentration from which the fluorescent band of dsDNA shifted upward", "setting": "[2]", "value": "about 1.6 μM"}, {"measurement": "binding thickness (dissociation equilibrium of OhrR minus dsDNA binding equilibrium)", "setting": "[3]; OhrR 50 μM, DNA 2.5 μM, without CHP and biothiol", "value": "about 4.3 nm"}, {"measurement": "binding thickness", "setting": "[3]; in the presence of both CHP and a biothiol", "value": "about 1 nm"}]}]}
